B1: Nitrogen regulatory protein P-II (Synechococcus elongatus (strain PCC 7942)), P0A3F4 (parent)
chain: MKKIEAIIRPFKLDEVKIALVNAGIVGMTVSEVRGFGRQKGQTERYRGSEYTVEFLQKLKLEIVVEDAQVDTVIDKIVAAARTGEIGDGKIFVSPVDQTIRIRTGEKNADAI
partner: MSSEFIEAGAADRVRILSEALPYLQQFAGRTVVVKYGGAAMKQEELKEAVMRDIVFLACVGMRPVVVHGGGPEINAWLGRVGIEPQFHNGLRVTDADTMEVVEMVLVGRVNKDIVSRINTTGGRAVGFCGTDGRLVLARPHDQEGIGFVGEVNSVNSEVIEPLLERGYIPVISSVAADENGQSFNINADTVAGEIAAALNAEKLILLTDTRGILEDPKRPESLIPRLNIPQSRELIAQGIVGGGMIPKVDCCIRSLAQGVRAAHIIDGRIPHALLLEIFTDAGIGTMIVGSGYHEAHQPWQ
B2: Acetylglutamate kinase (Synechococcus elongatus (strain PCC 7942)), Q6V1L5 (parent)
chain: B1 partner

Variants of: B1
Settings: with argb_syne7 argB, Q6V1L5

effect of a mutation on the interaction	Variant
disrupting interaction	F11A
disrupting interaction strength	S49D
disrupting interaction strength	S49E
disrupting interaction strength	S49A
disrupting interaction	R47A
disrupting interaction	Y46A
disrupting interaction	R45A
disrupting interaction	E85A

Variants of: B1
Settings: with argb_syne7 argB

effect of a mutation on the interaction	Variant
disrupting interaction	S49D

Variants of: B2
Settings: with glnb_syne7 glnB, P0A3F4

effect of a mutation on the interaction	Variant
disrupting interaction	R254A
disrupting interaction	I229A
disrupting interaction	L256A
disrupting interaction	R139A
disrupting interaction	Q258A
disrupting interaction	R233A

Source: IntAct's records for PubMed 17959776
